# Assay results published in patent publication US20080317746A1 (MICROMET, published 2008).
# Positions count from the first letter of the chain named. Like-named read-outs stand apart in the source and are kept apart here.
# T1: human IL2 receptor on NKL cells (human, UniProt P01589 22-272; P14784 27-551; P31785 23-369)
# T1 construct: whole, on cells; also called hIL2 receptor; IL2 receptor component(s)
# T1 sequence (looked up) 1: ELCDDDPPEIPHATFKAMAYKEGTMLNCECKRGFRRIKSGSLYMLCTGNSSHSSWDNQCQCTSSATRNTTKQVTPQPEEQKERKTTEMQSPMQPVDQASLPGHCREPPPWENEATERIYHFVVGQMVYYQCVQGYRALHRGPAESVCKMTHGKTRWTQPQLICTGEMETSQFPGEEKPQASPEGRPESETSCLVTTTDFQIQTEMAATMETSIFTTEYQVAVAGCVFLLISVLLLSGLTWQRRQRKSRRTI
# T1 sequence (looked up) 2: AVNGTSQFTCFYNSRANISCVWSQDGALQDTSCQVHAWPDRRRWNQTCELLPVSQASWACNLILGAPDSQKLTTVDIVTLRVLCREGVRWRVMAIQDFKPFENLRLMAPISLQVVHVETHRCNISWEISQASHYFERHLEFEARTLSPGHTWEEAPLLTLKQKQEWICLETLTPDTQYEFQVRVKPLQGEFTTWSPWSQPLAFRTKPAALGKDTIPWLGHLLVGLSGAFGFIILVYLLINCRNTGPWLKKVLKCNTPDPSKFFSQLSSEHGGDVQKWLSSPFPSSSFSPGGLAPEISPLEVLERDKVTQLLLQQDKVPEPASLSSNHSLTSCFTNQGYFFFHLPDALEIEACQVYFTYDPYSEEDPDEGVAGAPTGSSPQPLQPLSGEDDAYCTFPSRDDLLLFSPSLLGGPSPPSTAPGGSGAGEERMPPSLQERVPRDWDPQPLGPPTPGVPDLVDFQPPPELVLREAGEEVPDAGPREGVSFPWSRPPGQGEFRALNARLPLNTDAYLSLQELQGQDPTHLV
# T1 sequence (looked up) 3: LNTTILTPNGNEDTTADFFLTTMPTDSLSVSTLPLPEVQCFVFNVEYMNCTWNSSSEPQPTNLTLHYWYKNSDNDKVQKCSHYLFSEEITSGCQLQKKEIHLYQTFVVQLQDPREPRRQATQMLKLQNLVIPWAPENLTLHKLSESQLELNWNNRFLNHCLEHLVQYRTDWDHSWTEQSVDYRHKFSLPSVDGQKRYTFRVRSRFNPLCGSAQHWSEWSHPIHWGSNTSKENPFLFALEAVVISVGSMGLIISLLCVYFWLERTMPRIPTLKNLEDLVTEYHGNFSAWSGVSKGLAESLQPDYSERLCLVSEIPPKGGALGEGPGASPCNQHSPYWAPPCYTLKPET
# B1: Anti-IL2 (humanized anti-IL2 IgG1 antibody) (antibody, V domains shown)
# VH: EVQLVESGGGLVQPGGSLRLSCAASGFTFSSYTLAWVRQAPGKGLEWVAAIDSSSYTYSPDTVRGRFTISRDNAKNSLYLQMNSLRAEDTAVYYCARDSNWDALDYWGQGTTVTVSS
# VL: DIQMTQSPSSLSASVGDRVTITCKASQNVGTNVGWYQQKPGKAPKALIYSASFRYSGVPSRFSGSGSGTDFTLTISSLQPEDFATYYCQQYYTYPYTFGGGTKVEIKR
# notes: IgG1; Its VL carries KAPKA in framework 2
# B2: MHM + hHC (VL with human framework 2, mouse frameworks 1 and 3) (antibody, human IgG1, V domains shown)
# VH: B1 VH
# VL: DIVMTQSQKFMSTSVGDRVSVTCKASQNVGTNVGWYQQKPGKAPKLLIYSASFRYSGVPDRFTGSGSGTDFSLTISNVKSEDLAEYFCQQYYTYPYTFGGGTKLEIK
# notes: Human IgG1 and human Ckappa
# B3: HMH + hHC (VL with human frameworks 1 and 3, mouse framework 2) (antibody, V domains shown)
# VH: B1 VH
# VL: DIQMTQSPSSLSASVGDRVTITCKASQNVGTNVGWYQQKPGQSPKALIYSASFRYSGVPSRFSGSGSGTDFTLTISSLQPEDFATYYCQQYYTYPYTFGGGTKLEIK
# notes: Human IgG1 and human Ckappa
# B4: HMM + hHC (VL with human framework 1, mouse frameworks 2 and 3) (antibody, V domains shown)
# VH: B1 VH
# VL: B3 VL with S60D, S63T, T72S, S77N, L78V, Q79K, P80S, F83L, T85E, Y87F
# notes: Human IgG1 and human Ckappa
# B5: MMH + hHC (VL with human framework 3, mouse frameworks 1 and 2) (antibody, V domains shown)
# VH: B1 VH
# VL: B3 VL with Q3V, P8Q, S9K, S10F, L11M, A13T, T20S, I21V
# notes: Human IgG1 and human Ckappa
# B6: hLC + hHC (humanized light chain with humanized heavy chain) (antibody, human IgG1, V domains shown)
# VH: B1 VH
# VL: B3 VL with Q42K, S43A, A46L, L104V
# notes: Human IgG1 C1, C2, C3 and human Ckappa; Tested as 293 cell supernatant; also called hLH+hHC
# B7: hLC_KAPKA + hHC (antibody, V domains shown)
# VH: B1 VH
# VL: B3 VL with Q42K, S43A, L104V
# notes: Human IgG1 and human Ckappa
# B8: cLC + hHC (chimeric light chain with humanized heavy chain) (antibody, human IgG1, V domains shown)
# VH: B1 VH
# VL: B2 VL with K42Q, A43S, L46A
# notes: Human IgG1 C1, C2, C3 and human Ckappa; Tested as 293 cell supernatant; also called cLH+hHC
# B9: mAb202 (commercially available from R&D Systems) (antibody, V domains shown)
# VH: DVRLVESGGGLVKPGGSLKLSCAAYGFTFSSYTLAWVRQTPEKRLEWVAAIDSSSYTYSPDTVRGRFTISRDNAKNTLYLQMSSLKSEDTAMYYCTRDSNWDALDYWGQGTSVIVSS
# VL: B2 VL with K42Q, A43S, L46A
# notes: Mouse monoclonal antibody; also called original mAb; parental mAb202
# Tests used:
# [1] = biological target: T2, human interleukin-2 (hIL2) (human, UniProt P60568 21-153); experiment: cell-based or functional assay
# T2 sequence (P60568 21-153): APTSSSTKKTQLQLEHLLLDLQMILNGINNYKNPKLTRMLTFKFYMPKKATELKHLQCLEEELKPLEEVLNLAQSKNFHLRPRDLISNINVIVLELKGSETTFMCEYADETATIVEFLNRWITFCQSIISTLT
# [2] = biological target: T2, human interleukin-2 (hIL2); experiment: cell-based or functional assay; remark: listed apart in the source
# [3] = biological target: T2, human interleukin-2 (hIL2); experiment: BiaCore, format not described
# [4] = biological target: T2, human interleukin-2 (hIL2); experiment: Cell Surface (binding to cell surface-associated hIL2), method not described; Cell Surface, not BiaCore
# [5] = biological target: T1, human IL2 receptor on NKL cells; experiment: FACS on hIL2-deprived NKL cells without hIL2; fluorescence-labeled goat anti-human IgG detection
# [6] = biological target: T3, Proleukin (formulated recombinant hIL2, expressed in E. coli), PEG-biotinylated (human, UniProt P60568 22-153, PEG-biotinylated (site not stated)); experiment: ELISA: PEG-biotinylated Proleukin on streptavidin plate, 293 cell supernatant antibody, anti-human IgG-HRP, ABTS, absorbance at 405 nm
# T3 construct: also called PEG-biotinylated Proleukin; hIL2 antigen
# T3 sequence (P60568 other isoform, or with tags, fused parts or gaps limits assumed): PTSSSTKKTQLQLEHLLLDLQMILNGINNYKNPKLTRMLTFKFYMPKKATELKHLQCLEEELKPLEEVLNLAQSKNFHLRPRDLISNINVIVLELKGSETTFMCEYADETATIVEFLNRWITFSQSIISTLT
# [7] = biological target: T3, Proleukin (formulated recombinant hIL2, …); experiment: as above; remark: listed apart in the source
# [8] = biological target: T3, Proleukin (formulated recombinant hIL2, …); experiment: as above; remark: listed apart in the source
# [9] = biological target: T2, human interleukin-2 (hIL2); experiment: FACS on NKL cells loaded with recombinant hIL2
binder,measurement,setting,value
B1,"IC50, IL2-dependent proliferation of primary human NK cells (donor shown)",[1],~300 pM
same,IC50 of IL2-dependent CD124 cell surface expression on CTLL-2 cells,[1],~330 pM
same,"IC50, IFN-gamma production by Human NK Cells",[2],130 pM
same,"IC50, Proliferation of Human Primary NK Cells",[2],100 pM
same,Kd,[3],0.68 nM
same,Kd,[4],2.5 nM
same,binding result,[5],no binding
B2,EC50 (read off the curve),[6],~60 ng/mL
B3,EC50 (read off the curve),[6],~60 ng/mL
B4,EC50 (read off the curve),[6],~60 ng/mL
B5,EC50 (read off the curve),[6],~60 ng/mL
B6,EC50 (read off the curve),[7],~200 ng/mL
B7,EC50 (read off the curve),[8],~50 ng/mL
B8,EC50 (read off the curve),[7],~100 ng/mL
B9,binding result,[9],binds
